Experiments:
[1] = biological target: HLA-A*26:02; test: IEDB peptide-MHC binding, purified MHC/direct/fluorescence; filed as Kd, often an IC50 or EC50 that approximates it; ≥ and ≤ were set here for values at or beyond the usual limits of such assays
[2] = biological target: HLA-C*14:02; test: as above
[3] = biological target: HLA-B*08:01; test: as above
[4] = biological target: HLA-A*01:01; test: as above
[5] = biological target: HLA-A*29:02; test: as above; settings: source organism: Zaire ebolavirus
[6] = biological target: HLA-B*44:02; test: as above; settings: source organism: Zaire ebolavirus
[7] = biological target: HLA-A*03:01; test: as above; settings: source organism: Zaire ebolavirus
[8] = biological target: HLA-A*23:01; test: as above; settings: source organism: Zaire ebolavirus
[9] = biological target: HLA-B*27:05; test: as above; settings: source organism: Zaire ebolavirus
[10] = biological target: HLA-A*68:02; test: as above
[11] = biological target: HLA-B*07:02; test: as above
[12] = biological target: HLA-B*57:01; test: as above
[13] = biological target: HLA-B*18:01; test: as above
[14] = biological target: HLA-B*46:01; test: as above; settings: source organism: Zaire ebolavirus
[15] = biological target: HLA-A*11:01; test: as above
[16] = biological target: HLA-B*08:01; test: IEDB peptide-MHC binding, purified MHC/competitive/fluorescence; ≥ and ≤ were set here for values at or beyond the usual limits of such assays; settings: source organism: Zaire ebolavirus
[17] = biological target: HLA-B*07:02; test: as above; settings: source organism: Zaire ebolavirus
[18] = biological target: HLA-A*24:02; test: as above; settings: source organism: Zaire ebolavirus
[19] = biological target: HLA-A*02:01; test: as above; settings: source organism: Zaire ebolavirus
[20] = biological target: HLA-B*15:01; test: as above; settings: source organism: Zaire ebolavirus
[21] = biological target: HLA-A*69:01; test: IEDB peptide-MHC binding, purified MHC/competitive/fluorescence; filed as Kd, often an IC50 or EC50 that approximates it; ≥ and ≤ were set here for values at or beyond the usual limits of such assays; settings: source organism: Zaire ebolavirus
[22] = biological target: HLA-B*39:01; test: as above
[23] = biological target: HLA-B*27:03; test: as above; settings: source organism: Zaire ebolavirus
[24] = biological target: HLA-A*26:01; test: as above; settings: source organism: Zaire ebolavirus
[25] = biological target: HLA-A*26:01; test: IEDB peptide-MHC binding, purified MHC/direct/fluorescence; filed as Kd, often an IC50 or EC50 that approximates it; ≥ and ≤ were set here for values at or beyond the usual limits of such assays; settings: source organism: Influenza A virus (A/goose/Hong Kong/8/1976(H1N1))
[26] = biological target: HLA-A*69:01; test: as above; settings: source organism: Vibrio vulnificus YJ016
[27] = biological target: HLA-B*15:17; test: as above; settings: source organism: Vibrio vulnificus YJ016
[28] = biological target: HLA-B*58:01; test: as above; settings: source organism: Vibrio vulnificus YJ016
[29] = biological target: HLA-A*31:01; test: as above; settings: source organism: Vibrio vulnificus YJ016
[30] = biological target: HLA-A*26:03; test: as above; settings: source organism: Vibrio vulnificus YJ016
[31] = biological target: HLA-A*02:11; test: as above; settings: source organism: Vibrio vulnificus YJ016
[32] = biological target: HLA-A*02:06; test: IEDB peptide-MHC binding, purified MHC/competitive/fluorescence; filed as Kd, often an IC50 or EC50 that approximates it; ≥ and ≤ were set here for values at or beyond the usual limits of such assays; settings: source organism: Vibrio vulnificus YJ016
[33] = biological target: HLA-A*02:03; test: as above; settings: source organism: Vibrio vulnificus YJ016
[34] = biological target: HLA-A*30:01; test: as above; settings: source organism: Vibrio vulnificus YJ016
[35] = biological target: HLA-B*07:02; test: as above; settings: source organism: Vibrio vulnificus YJ016
[36] = biological target: HLA-A*02:01; test: as above; settings: source organism: Vibrio vulnificus YJ016
[37] = biological target: HLA-B*51:01; test: IEDB peptide-MHC binding, purified MHC/direct/fluorescence; filed as Kd, often an IC50 or EC50 that approximates it; ≥ and ≤ were set here for values at or beyond the usual limits of such assays
[38] = biological target: HLA-B*15:01; test: as above; settings: source organism: Yellow fever virus 17D
[39] = source organism: Zaire ebolavirus
[40] = source organism: Vibrio vulnificus YJ016
[41] = source organism: Giardia lamblia ATCC 50803

For DTITNVTTM, the Kd ([1]; source organism: West Nile virus strain PTRoxo) was ≤ 0.001 µM and the Kd ([2]; source organism: West Nile virus) was 1.65 µM.
For RLAKLTEAI, the Kd [3, 39] was 13.3 µM, the Kd [4, 39] was ≥ 20 µM and the Kd [5] was ≥ 20 µM. For the same sequence, the Kd [6] was ≥ 20 µM, the Kd [7] was ≥ 20 µM and the Kd [8] was ≥ 20 µM. For the same sequence, the Kd [9] was ≥ 20 µM, the Kd [10, 39] was ≥ 20 µM and the Kd [11, 39] was ≥ 20 µM. For the same sequence, the Kd [12, 39] was ≥ 20 µM, the Kd [13, 39] was ≥ 20 µM and the Kd [14] was ≥ 20 µM. The Kd [15, 39] was ≥ 20 µM, the IC50 [16] was ≥ 182 µM and the IC50 [17] was ≥ 217 µM. It also gave an IC50 [18] of 1.43 µM, an IC50 [19] of 14.9 µM and an IC50 [20] of 48 µM. The Kd [21] was ≥ 20 µM, the Kd [22, 39] was ≥ 20 µM and the Kd [23] was ≥ 20 µM. The Kd [24] was ≥ 20 µM.
In the case of LSPGMMMGM, the Kd ([1]; source organism: Influenza B virus (B/Beijing/184/93)) is reported as 0.319 µM and the Kd [25] is reported as ≥ 20 µM.
LLRRRPYPL was tested, and the Kd [26] was ≥ 20 µM, the Kd [3, 40] was 0.003 µM and the Kd [4, 40] was ≥ 20 µM. For the same sequence, the Kd [1, 40] was ≥ 20 µM, the Kd [27] was ≥ 20 µM and the Kd [28] was ≥ 20 µM. For the same sequence, the Kd [10, 40] was ≥ 20 µM, the Kd [12, 40] was ≥ 20 µM and the Kd [13, 40] was ≥ 20 µM. The Kd [29] was ≥ 20 µM, the Kd [30] was ≥ 20 µM and the Kd [15, 40] was ≥ 20 µM. The Kd [31] was ≤ 0.001 µM, the Kd [32] was 2.04 µM and the Kd [22, 40] was ≥ 20 µM. The Kd [33] was 0.0021 µM, the Kd [34] was 0.441 µM and the Kd [35] was 0.206 µM. For the same sequence, the Kd [36] was 0.105 µM.
AAVSHLTTL showed an IC50 [17] of 21.7 µM, an IC50 [18] of 2.25 µM and an IC50 [19] of 1.05 µM. It also gave an IC50 [20] of 16.5 µM.
With ATAQNRRAL the Kd [37, 41] was ≥ 20 µM, the Kd [11, 41] was 0.0227 µM and the Kd [2, 41] was 0.273 µM.
With SVAMCRTPF the Kd ([37]; source organism: Yellow fever virus 17D) was ≥ 20 µM and the Kd [38] was 0.032 µM.

Source: the Immune Epitope Database (IEDB)
